From paper PMC8167871, “Three‐dimensional structures of avian beta‐microseminoproteins: insight from the chicken egg‐specific beta‐microseminoprotein 3 paralog” (FEBS Open Bio, 2021)

Target: the molecule itself
Test: MALDI-TOF mass spectrometry; top-down analysis of purified MSMB3 without any reduction or alkylation

B1: chicken beta-microseminoprotein 3 (MSMB3), proteoform lacking the C-terminal glycine, MSMB3(-G) (natural protein, chicken (Gallus gallus))
chain: RCYFRTSSKYGCISNRNLYVFGAVWKTEDCYQCKCKMNAMVCCSLVSIPKNYDRVNCVGLFHKKSCSIRVVKKTDPDISCKVYNGV
modifications: five disulfide bridges (C2-C43, C12-C35, C30-C66, C33-C42, C57-C80); delta mass of -1 Da on two lysines, especially K63 (potential oxidation of the lysine residue)
notes: chicken (Gallus gallus) MSMB3, mature protein without its C-terminal G87 (major proteoform of the purified sample, residues 1-86); numbers count on: the mature protein; The dimer seen by mass spectrometry and the crystal structure are of MSMB3(-G); the NMR sample is called only MSMB3; also called Gga-MSMB3; Gga-MSMB3 without G
- stoichiometry N: 2
